In patent publication US20220340682A1 (Sanofi, published 2022):

T1: hCEACAM5, human CEACAM5 ECD (35-685) (human, UniProt P06731 35-685)
T1 construct: produced in HEK293; also called human CEACAM5 protein; human CEACAM5 extracellular domain
T1 sequence: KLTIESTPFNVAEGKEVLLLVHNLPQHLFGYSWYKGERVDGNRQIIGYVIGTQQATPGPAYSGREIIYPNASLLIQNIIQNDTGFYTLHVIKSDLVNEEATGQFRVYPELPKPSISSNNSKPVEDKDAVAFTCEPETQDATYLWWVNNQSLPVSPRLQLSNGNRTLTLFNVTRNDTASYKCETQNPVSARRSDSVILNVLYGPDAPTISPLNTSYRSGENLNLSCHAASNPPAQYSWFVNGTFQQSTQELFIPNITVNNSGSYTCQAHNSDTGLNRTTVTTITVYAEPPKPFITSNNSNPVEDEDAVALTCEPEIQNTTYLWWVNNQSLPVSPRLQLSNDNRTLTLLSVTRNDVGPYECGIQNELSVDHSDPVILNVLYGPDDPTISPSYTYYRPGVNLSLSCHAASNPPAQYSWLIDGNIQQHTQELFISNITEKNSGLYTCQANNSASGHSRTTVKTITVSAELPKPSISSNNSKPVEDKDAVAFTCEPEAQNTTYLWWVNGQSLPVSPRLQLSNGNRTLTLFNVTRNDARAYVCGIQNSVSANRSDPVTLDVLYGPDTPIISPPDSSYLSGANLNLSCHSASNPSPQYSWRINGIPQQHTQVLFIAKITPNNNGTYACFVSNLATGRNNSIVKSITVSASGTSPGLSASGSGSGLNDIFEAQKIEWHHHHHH

T2: cCEACAM5, M. fascicularis CEACAM5 ECD (35-688) (Macaca fascicularis)
T2 construct: ECD followed by a 24 amino acid extension containing a His-Tag; also called cynomolgus CEACAM5; monkey CEACAM5
T2 chain: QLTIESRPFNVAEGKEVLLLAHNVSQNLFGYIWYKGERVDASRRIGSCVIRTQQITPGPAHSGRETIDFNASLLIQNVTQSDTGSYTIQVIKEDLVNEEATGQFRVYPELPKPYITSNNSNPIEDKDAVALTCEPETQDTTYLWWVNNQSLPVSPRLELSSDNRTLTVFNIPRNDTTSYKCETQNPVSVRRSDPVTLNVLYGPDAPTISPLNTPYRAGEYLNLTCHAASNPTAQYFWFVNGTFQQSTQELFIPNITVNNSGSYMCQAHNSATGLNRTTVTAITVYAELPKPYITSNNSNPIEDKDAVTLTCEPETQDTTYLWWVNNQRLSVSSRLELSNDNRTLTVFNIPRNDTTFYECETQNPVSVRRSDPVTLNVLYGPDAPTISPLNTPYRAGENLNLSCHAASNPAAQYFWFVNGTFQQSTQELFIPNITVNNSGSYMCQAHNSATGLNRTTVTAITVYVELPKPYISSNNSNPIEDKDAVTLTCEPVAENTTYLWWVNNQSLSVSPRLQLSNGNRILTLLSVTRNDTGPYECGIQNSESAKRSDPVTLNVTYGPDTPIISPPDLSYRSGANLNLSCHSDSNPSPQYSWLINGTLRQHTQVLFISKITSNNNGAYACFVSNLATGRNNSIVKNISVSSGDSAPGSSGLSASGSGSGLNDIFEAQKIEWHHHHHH

T3: cCEACAM5 A3B3, M. fascicularis CEACAM5 A3-B3 domain (499-688) (Macaca fascicularis)
T3 construct: Followed by 24 amino acid extension containing a His-Tag; also called cynomolgus CEACAM5 A3-B3
T3 chain: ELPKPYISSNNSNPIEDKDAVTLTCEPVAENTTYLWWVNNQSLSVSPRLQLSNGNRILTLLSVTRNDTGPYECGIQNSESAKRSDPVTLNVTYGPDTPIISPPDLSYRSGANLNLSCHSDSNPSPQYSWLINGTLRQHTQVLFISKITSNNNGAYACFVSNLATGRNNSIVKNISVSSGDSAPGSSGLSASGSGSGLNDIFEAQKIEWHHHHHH

T4: cCEACAM1, M. fascicularis CEACAM1 ECD (35-428) (Macaca fascicularis)
T4 construct: With 24 amino acid extension containing a His-Tag; also called cynomolgus CEACAM1
T4 chain: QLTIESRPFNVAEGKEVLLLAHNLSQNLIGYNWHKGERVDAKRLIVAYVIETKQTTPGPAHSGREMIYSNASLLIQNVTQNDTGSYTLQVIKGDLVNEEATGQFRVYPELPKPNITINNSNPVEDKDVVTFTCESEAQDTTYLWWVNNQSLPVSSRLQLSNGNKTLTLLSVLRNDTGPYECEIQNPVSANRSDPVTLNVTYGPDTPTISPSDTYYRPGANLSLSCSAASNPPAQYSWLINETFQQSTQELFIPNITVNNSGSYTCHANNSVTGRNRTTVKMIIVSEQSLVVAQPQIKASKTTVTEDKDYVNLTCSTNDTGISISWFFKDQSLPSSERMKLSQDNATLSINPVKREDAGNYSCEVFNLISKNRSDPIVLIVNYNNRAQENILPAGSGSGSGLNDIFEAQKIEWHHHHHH

T5: cCEACAM8, M. fascicularis CEACAM8 ECD (35-332) (Macaca fascicularis)
T5 construct: With 24 amino acid extension containing a His-Tag; also called cynomolgus CEACAM8
T5 chain: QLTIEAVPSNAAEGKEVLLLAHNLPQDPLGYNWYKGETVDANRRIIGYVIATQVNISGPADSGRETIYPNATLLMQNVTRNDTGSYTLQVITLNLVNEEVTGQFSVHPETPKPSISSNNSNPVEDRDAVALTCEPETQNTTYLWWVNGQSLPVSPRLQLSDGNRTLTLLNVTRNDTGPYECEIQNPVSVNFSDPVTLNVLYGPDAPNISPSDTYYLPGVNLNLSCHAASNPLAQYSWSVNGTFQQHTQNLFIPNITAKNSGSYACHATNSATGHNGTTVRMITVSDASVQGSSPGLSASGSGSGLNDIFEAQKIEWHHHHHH


Assays:
[1] = target: T1, hCEACAM5, human CEACAM5 ECD (35-685); assay: ELISA, murine hybridoma mAb
[2] = target: T2, cCEACAM5, M. fascicularis CEACAM5 ECD …; assay: ELISA, murine hybridoma mAb
[3] = target: T3, cCEACAM5 A3B3, M. fascicularis CEACAM5 …; assay: ELISA on coated recombinant CEACAM5 protein or domain, anti-mouse IgG-HRP, OD 450 nm
Protocol: Domain mapping of anti-CEACAM5 antibodies to human CEACAM5 and cynomolgus CEACAM5 proteins was determined by ELISA. […] Purified antibodies were added to the plates and detected by using rabbit anti-mouse IgG conjugated with horseradish peroxidase (Sigma; #A9044). Antibody binding was visualized by adding TMB-H2O2 buffer and read at a wavelength of 450 nm.

[4] = target: T2, cCEACAM5, M. fascicularis CEACAM5 ECD …; assay: ELISA
[5] = target: T4, cCEACAM1, M. fascicularis CEACAM1 ECD …; assay: ELISA
[6] = target: T5, cCEACAM8, M. fascicularis CEACAM8 ECD …; assay: ELISA

| Binder | EC50 [1] [nM] | EC50 [2] [nM] | binding result [3] | percentage of binding compared to full binding with cynomolgus CEACAM5 [4] [%] | percentage of binding compared to full binding with cynomolgus CEACAM5 [5] [%] | percentage of binding compared to full binding with cynomolgus CEACAM5 [6] [%] |
| --- | --- | --- | --- | --- | --- | --- |
| antibody MAb4 (antibody, IgG1, V domains shown, Murine monoclonal from hybridoma, IgG1, kappa) VH: EVQLVESGGGLVKPGGSLKLSCAASGFTFSSYDMSWVRQTPEKRLEWVAFISSYGGRTYYADTVKGRFTISRDNAKNTLYLQMSSLKSEDTAMFYCAAHYFGTSGPFAYWGQGTLVTVSA VL: DIQMTQSPASLSASVGETVTITCRASENIYSYFAWYQQKQGKSPQLLVYNAKILAEGVPSRFSGSGSGTQFSLKINSLQPEDFGTYYCQHHYGIPFTFGSGTKLELK | 0.08 | 0.05 | binds |  |  |  |
| antibody MAb5 (antibody, IgG1, V domains shown, Murine monoclonal from hybridoma, IgG1, kappa) VH: ELQLVESGGVLVKPGGSLKLSCAASGFAFSSYDMSWVRQTPEKRLEWVTYINSGGGITYYPDTVKGRFTISRDNARNTLYLQMSSLKSEDTAIYYCTAHYFGSSGPFAYWGQGTLVTVSA VL: DIQMTQSPASLSASVGETVTITCRASENIYSYLAWYQQKQGKSPQLLVYNAKTLTEGVPSRFSGSGSGTQFSLKINSLQPEDFGSYYCQHHYGTPFTFGSGTKLEIK | 0.4 | 0.45 | binds |  |  |  |
| huMAb2-3 (antibody, human IgG1, kappa, V domains shown, Humanized MAb2, human IgG1 / Ckappa; also called MAb2_VL1cVH1a-IgG1) VH: EVQLQESGPGLVKPGGSLSLSCAASGFVFSSYDMSWVRQTPERGLEWVAYISSGGGITYAPSTVKGRFTVSRDNAKNTLYLQMNSLTSEDTAVYYCAAHYFGSSGPFAYWGQGTLVTVSS VL: DIQMTQSPASLSASVGDRVTITCRASENIFSYLAWYQQKPGKSPKLLVYNTRTLAEGVPSRFSGSGSGTDFSLTISSLQPEDFATYYCQHHYGTPFTFGSGTKLEIKR |  |  |  | 100 | 0.3 | 1.2 |
| huMAb2-1 (antibody, V domains shown, Humanized MAb2 (VL1 + VH1) fused to human IgG1 and human Ckappa constant domains; also called MAb2_VL1VH1-IgG1; MAb2VL1VH1-IgG1) VH: EVQLQESGPGLVKPGGSLSLSCAASGFVFSSYDMSWVRQTPERRLEWVAYISSGGGITYFPSTVKGRFTVSRDNAKNTLYLQMNSLTSEDTAIYYCAAHYFGSSGPFAYWGQGTLVTVSA VL: DIQMTQSPASLSASVGDTVTITCRASENIFSYLAWYQQKPGKSPKLLVYNTKTLAEGVPSRFSGSGSGTQFSLTISSLQPEDFGSYYCQHHYGTPFTFGSGTKLEIK |  |  |  | 100 | 0.3 | 3.6 |
| chMAb2 (antibody, human IgG1, kappa, V domains shown, Chimeric, human IgG1, Ck isotype; also called MAb2-IgG1; chimeric MAb2) VH: EVQLQESGGVLVKPGGSLKLSCAASGFVFSSYDMSWVRQTPEKRLEWVAYISSGGGITYFPDTVQGRFTVSRDNAKNTLYLQMNSLKSEDTAIYYCAAHYFGSSGPFAYWGQGTLVTVSA VL: DIQMTQSPASLSASVGETVTITCRASENIFSYLAWYQQKQGKSPQLLVYNTKTLAEGVPSRFSGSGSGTQFSLKINSLQPEDFGSYYCQHHYGTPFTFGSGTKLEIKR |  |  |  | 100 | 0.2 | 1.2 |
| huMAb2-2 (antibody, V domains shown, Humanized MAb2 (VL1a + VH1a) fused to human IgG1 and human Ckappa constant domains; also called MAb2_VL1aVH1a-IgG1; MA2_VL1aVH1a-IgG1) VH: EVQLQESGPGLVKPGGSLSLSCAASGFVFSSYDMSWVRQTPERGLEWVAYISSGGGITYAPSTVKGRFTVSRDNAKNTLYLQMNSLTSEDTAVYYCAAHYFGSSGPFAYWGQGTLVTVSS VL: DIQMTQSPASLSASVGDRVTITCRASENIFSYLAWYQQKPGKSPKLLVYNTKTLAEGVPSRFSGSGSGTDFSLTISSLQPEDFATYYCQHHYGTPFTFGSGTKLEIK |  |  |  | 100 | 0.3 | 0.9 |
| huMAb2-4 (antibody, human IgG1, kappa, V domains shown, Humanized MAb2, human IgG1 / Ckappa; also called MAb2_VL1d VH1-IgG1; MAb2_VL1dVH1-IgG1) VH: EVQLQESGPGLVKPGGSLSLSCAASGFVFSSYDMSWVRQTPERRLEWVAYISSGGGITYFPSTVKGRFTVSRDNAKNTLYLQMNSLTSEDTAIYYCAAHYFGSSGPFAYWGQGTLVTVSA VL: DIQMTQSPASLSASVGDTVTITCRASENIFSYLAWYQQKPGKSPKLLVYNTRTLAEGVPSRFSGSGSGTQFSLTISSLQPEDFGSYYCQHHYGTPFTFGSGTKLEIKR |  |  |  | 100 | 0.3 | 3.2 |
| antibody MAb1 (antibody, IgG1, V domains shown) VH: EVMLVESGGGLVKPGGSLKLSCAASGFTFSSYAMSWVRQTPEKRLEWVATISSGGSYIYYLDSVKGRFTISRDNAKNTLYLQMSSLRSEDTAMYYCARPAYYGNPAMDYWGQGTSVTVSS VL: DILMTQSQKFMSTSVGDRVSVTCKASQNVGTNVAWYQQKPGQSPKPLIYSASYRYSGVPDRFTGSGSGTDFTLTISNVQSEDLAEYFCQQYNSYPLYTFGGGTKLEIK |  | 1.18 | binds |  |  |  |
| antibody MAb3 (antibody, IgG1, V domains shown, Murine monoclonal from hybridoma, IgG1, kappa) VH: EVKLVESGGGLVKPGGSLTLPCAASGFTFSRYAMSWVRQTPEKRLEWVASISSGGDTYYPDSVKGRFTVSRDNARNILFLQMSSLRSEDTGMYYCARVNYYDSSFLDWWGQGTTLTVSS VL: DIVMTQSQRFMSTLEGDRVSVTCKASQNVGTNVAWYQQKPGQSPKALIYSASYRYSGVPDRFTGSGSGTDFTLTISNVQSEDLAEYFCQQYNNYPLYTFGGGTKLEIK | 0.36 | 3.72 | binds |  |  |  |
